From the supplement of paper PMC7877785
± gives the uncertainty stated by the source.

Experiment: self-splicing fitness, log relative to wild type (ln ratio); higher = more splicing; Tetrahymena group I intron in knt gene, E. coli kanamycin selection, DiMSum; sequences stand for … in CUCUCU…GGAGGGAAAAGUUAUCAGGCAUGCACCUGGUAGCUAGUCUUUAAACCAAUAGAUUGCAUCGGUUUAAAAGGCAAGACCGUCAAAUUGCGGGAAAGGGGUCAACAGCCGUUCAGUACCAAGUCUCAGGGGAAACUUUGAGAUGGCCUUGCAAAGGGUAUGGUAAUAAGCUGACGGACAUGGUCCUAACCACGCAGCCAAGUCCUAAGUCAACAGAUCUUCUGUUGAUAUGGAUGCAGUUCACAGACUAAAUGUCGGUCGGGGAAGAUGUAUUCUUCUCAUAAGAUAUAGUCGGACCUCUCCUUAAUGGGAGCUAGCGGAUGAAGUGAUGCAACACUGGAGCCGCUGGGAACUAAUUUGUAUGCGAAAGUAUAUUGAUUAGUUUUGGAGUACUCGUGGUCG
Outline: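 A randomised library covering all eight P1ex-region intron nucleotides was built with the intron in the knt kanamycin-resistance gene on pET-22b(+) and held in E. coli BL21(DE3). Cells were grown overnight at 37°C or 30°C on LB agar, with or without 25 μg/mL kanamycin, plus 100 μg/mL carbenicillin, 50 μM IPTG and 0.2% rhamnose, and pooled colonies were amplicon-sequenced on an Illumina HiSeq 2500. DiMSum fitness is the error-weighted combination of wild-type-normalised replicate fold changes, kanamycin versus none.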

| Sequence | self-splicing fitness (ln) (30 °C) | self-splicing fitness (ln) (37 °C) |
| --- | --- | --- |
| AUAGAGCAAUAUUACGUUGU | -1.96 ± 0.066 | -1.52 ± 0.07 |
| ACCAAGCAAUAUUACGCCCG | -1.42 ± 0.14 | 0.129 ± 0.15 |
| CCAGAGCAAUAUUACGUCAU | -3.64 ± 0.28 | -2.81 ± 0.18 |
| GUCCAGCAAUAUUACGACUU | -1.65 ± 0.078 | -0.203 ± 0.085 |
| UAAUAGCAAUAUUACGAACA | -1.07 ± 0.14 | -0.685 ± 0.13 |
| UGUGAGCAAUAUUACGGCUU | -2.85 ± 0.27 | -1.81 ± 0.23 |
| AGCGAGCAAUAUUACGCUCG | -3.5 ± 0.27 | -2.34 ± 0.49 |
| UUGUAGCAAUAUUACGGAAU | -1.94 ± 0.15 | -3.26 ± 0.32 |
| AGGAAGCAAUAUUACGAAGU | -2.15 ± 0.24 | -1.82 ± 0.33 |
| GCCGAGCAAUAUUACGGGCG | -1.18 ± 0.17 | -0.688 ± 0.18 |
| CAAGAGCAAUAUUACGCGAG | -2.92 ± 0.2 | -2.11 ± 0.21 |
| UGUGAGCAAUAUUACGUACU | -1.72 ± 0.17 | 0.399 ± 0.15 |
| UUUAAGCAAUAUUACGGUGG | -0.86 ± 0.087 | -0.646 ± 0.12 |
| ACGUAGCAAUAUUACGCUGG | -2.32 ± 0.18 | -2.64 ± 0.41 |
| CACCAGCAAUAUUACGACCG | -0.000395 ± 0.066 | 0.12 ± 0.089 |
| AUAGAGCAAUAUUACGGUUG | -3.21 ± 0.23 | -1.92 ± 0.22 |
| AAGAAGCAAUAUUACGUUGG | -3.25 ± 0.18 | -2.71 ± 0.23 |
| CAUGAGCAAUAUUACGUUAU | -3.12 ± 0.14 | -2.54 ± 0.24 |
| UGCUAGCAAUAUUACGGGUU | -2.39 ± 0.14 | -1.33 ± 0.14 |
| AUACAGCAAUAUUACGUUGG | -3.51 ± 0.14 | -2.87 ± 0.16 |
| ACAGAGCAAUAUUACGGCCU | -3.08 ± 0.29 | -2.6 ± 0.25 |
| UCGCAGCAAUAUUACGAACA | -1.65 ± 0.12 | 0.339 ± 0.13 |
| CAAAAGCAAUAUUACGAGUG | -0.995 ± 0.058 | -0.101 ± 0.075 |
| CAAUAGCAAUAUUACGCUGC | -3.49 ± 0.28 | -1.92 ± 0.33 |

| Sequence | self-splicing fitness (ln) (30 °C) | self-splicing fitness (ln) (37 °C) |
| --- | --- | --- |
| UCCCAGCAAUAUUACGUCGC | -3.47 ± 0.27 | -2.4 ± 0.22 |
| AGUUAGCAAUAUUACGUAGU | -2.77 ± 0.17 | -1.94 ± 0.17 |
| UUGAAGCAAUAUUACGCAGA | -0.643 ± 0.13 | 0.228 ± 0.11 |
| AGGUAGCAAUAUUACGCGAU | -3.466 ± 0.03 | -2.24 ± 0.039 |
| UAACAGCAAUAUUACGACUU | -0.586 ± 0.084 | 0.316 ± 0.11 |
| AGAGAGCAAUAUUACGUGGC | -3.07 ± 0.25 | -1.59 ± 0.35 |
| UAGCAGCAAUAUUACGGAGU | -3.64 ± 0.18 | -2.78 ± 0.15 |
| AAUGAGCAAUAUUACGCGUA | -2.4 ± 0.27 | -1.62 ± 0.25 |
| UACCAGCAAUAUUACGAUGA | -0.0346 ± 0.056 | -0.119 ± 0.065 |
| UCAGAGCAAUAUUACGAGGU | -3 ± 0.29 | -2.5 ± 0.32 |
| AAGGAGCAAUAUUACGCGUU | -2.22 ± 0.17 | -2.15 ± 0.23 |
| UUGCAGCAAUAUUACGCCGA | -0.318 ± 0.11 | -0.371 ± 0.12 |
| ACUUAGCAAUAUUACGACAG | -0.902 ± 0.08 | 0.0363 ± 0.1 |
| GACGAGCAAUAUUACGGGAC | -3.94 ± 0.31 | -2.23 ± 0.46 |
| AGACAGCAAUAUUACGCCAG | -4.58 ± 0.46 | -3.27 ± 0.26 |
| GUUGAGCAAUAUUACGCAAG | -2.77 ± 0.21 | -1.79 ± 0.26 |
| UUAGAGCAAUAUUACGCUAA | -1.93 ± 0.24 | -0.588 ± 0.36 |
| UAACAGCAAUAUUACGGUUG | -0.966 ± 0.043 | -1.04 ± 0.064 |
| ACAGAGCAAUAUUACGGCAA | -0.636 ± 0.22 | -2.08 ± 0.33 |
| CGAGAGCAAUAUUACGACUC | -2.03 ± 0.42 | -0.968 ± 0.39 |
| UCGCAGCAAUAUUACGUUCG | -0.961 ± 0.088 | -0.562 ± 0.094 |
| ACUCAGCAAUAUUACGGCGG | -0.825 ± 0.078 | -0.0415 ± 0.095 |
| GUACAGCAAUAUUACGAUAU | -2.07 ± 0.1 | -1.48 ± 0.13 |
